Results taken from PMC6270119, “Application of Reductive ^13C-Methylation of Lysines to Enhance the Sensitivity of Conventional NMR Methods” (Molecules, 2013).

Experiments:
[1] = target: reductively methylated calmodulin (UniProt P0DP23); experiment: NMR titration; 1H-13C HSQC of 1 µM reductively methylated CaM with 0, 0.5, 1 and 1.5 µM FM-HVR (peptide not aggregated); 25 °C; 50 mM Tris-citrate pH 6.5, 50 mM NaCl, 5 mM MgCl2, 10 mM β-mercaptoethanol, 10 mM CaCl2
[2] = target: reductively methylated calmodulin (UniProt P0DP23); experiment: NMR titration; 1H-13C HSQC of 70 µM reductively methylated CaM with FM-HVR at 0:1, 1:1, 2:1 and 3:1 molar ratios (aggregated FM-HVR); 25 °C; 50 mM Tris-citrate pH 6.5, 50 mM NaCl, 5 mM MgCl2, 10 mM β-mercaptoethanol, 10 mM CaCl2
[3] = target: fully post-translationally modified (farnesylated and methylated) hypervariable region peptide of K-Ras4B (human); experiment: pyrene fluorescence (critical aggregation concentration); peptide at different concentrations with 2 µM pyrene in PBS; excitation scans 315-360 nm, emission 393 nm; ratio I334/I337 against the logarithm of the peptide concentration
[4] = Dynamic light scattering particle size analysis; assay type: physicochemical; details: DLS, 0.25 mM (250 μM) FM-HVR in PBS, room temperature
Description: This roughly corresponds to the monomeric form of peptide. However, upon introduction of farnesylation and methylation the hydrodynamic radius of the peptide increased to 8.15 ± 0.46 nm at a four times lower concentration as shown in Figure 2B. This hydrodynamic radius corresponded to a particle of 471.92 ± 63.75 kDa in size. Observation of higher order assemblies of FM-HVR allowed us to conclude that post-translational modifications in K-Ras can lead to aggregation through hydrophobic interactions.
For studying aggregation of peptides, dynamic light scattering experiments were performed on a DynaPro-801 molecular sizing instrument (Wyatt Technology Europe, Dernbach, Germany). The peptide samples were dialyzed against PBS. The sample volume of 250 μL was used for the experiments. […] Samples were centrifuged at 12000 rpm for 10 min before experiments. Analysis of the data was carried out using Dynamics software.

In the case of “fully post-translationally modified (farnesylated and methylated) hypervariable region peptide of K-Ras4B”, the FM-HVR to CaM titration ratio at saturation (FM-HVR per CaM) [1] was 1, the FM-HVR to CaM titration ratio at saturation (FM-HVR per CaM) [2] was 2 and the critical aggregation concentration [3] was greater than 10 µM.
For `COC(=O)[C@H](CSC/C=C(\C)CC/C=C(\C)CCC=C(C)C)NC(=O)C1CCC(CN2C(=O)CC(SC[C@H](NC(=O)[C@H](CCCCN)NC(=O)[C@H](CO)NC(=O)[C@H](CCCCN)NC(=O)[C@H](CCCCN)NC(=O)[C@H](CCCCN)NC(=O)[C@H](CCCCN)NC(=O)[C@H](CCCCN)NC(=O)[C@H](CCCCN)NC(=O)CNC(=O)[C@H](CC(=O)O)NC(=O)[C@H](CCCCN)NC(=O)[C@H](CO)NC(=O)[C@H](CCSC)NC(=O)[C@H](CCCCN)NC(=O)[C@H](CCC(=O)O)NC(=O)[C@@H](N)CCCCN)C(=O)O)C2=O)CC1` (some centres unmarked) [FM-HVR], the hydrodynamic radius [4] was 8.15 ± 0.46 nm and the “particle mass corresponding to hydrodynamic radius” value [4] was 471.92 ± 63.75 kDa.
